Experimental findings from patent US20260070986A1 (AFFIMED, published 2026) are described below.

Test [1] addresses T1, human CD16A (158F) on transfected CHO cells (cAg_34) (human, UniProt P08637 17-254).
T1 construct: Exact cell-anchored construct not described; also called huCD16A
Briefly: flow cytometry on huCD16A (158F) CHO cells (cAg_34), one-site fit of MFI, Exp. 2. The method, then:
(§1) After washing twice, cells were incubated with FITC-conjugated goat anti-human IgG (H+L) (Jackson Immunologies, cat.: 109-096-088) for 40-50 min on ice in the dark. […] After washing, binding was measured by flow cytometry and mean fluorescence intensities (MFI) of cell samples were calculated and corrected for background staining using control cells stained with secondary antibodies only.
(§2) Equilibrium dissociation constants (KD) of antibody binding were calculated by plotting MFI values and fitting a non-linear regression model for one-site binding to hyperbolic dose-response curves using GraphPad Prism.

The target in test [2] is T2, cynomolgus CD16 on transfected CHO cells (cAg_36) (cynomolgus, UniProt Q8SPW2 17-254).
T2 construct: whole, on cells; also called cyCD16
T2 sequence (Q8SPW2 17-254): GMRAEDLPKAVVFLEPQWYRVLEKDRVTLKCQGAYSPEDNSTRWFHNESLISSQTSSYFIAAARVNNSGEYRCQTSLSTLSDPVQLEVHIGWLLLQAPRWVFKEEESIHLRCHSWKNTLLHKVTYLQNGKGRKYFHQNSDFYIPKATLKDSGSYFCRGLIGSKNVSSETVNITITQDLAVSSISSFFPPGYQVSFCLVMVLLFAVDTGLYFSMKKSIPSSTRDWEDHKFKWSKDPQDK
Briefly: flow cytometry on cyCD16-transfected CHO cells (cAg_36), anti-human IgG-FITC detection. Here is the method:
(§3) After washing in FACS buffer, cells were incubated in 50 μL FACS buffer without antibodies or with titrated antibodies starting at a concentration of 1000 nM followed by elven 3-fold serial dilutions for 40-50 min on ice in the dark. After washing twice, cells were incubated with FITC-conjugated goat anti-human IgG (H+L) (Jackson Immunologies, cat.: 109-096-088) for 40-50 min on ice in the dark. […] After washing, binding was measured by flow cytometry and mean fluorescence intensities (MFI) of cell samples were calculated and corrected for background staining using control cells stained with secondary antibodies only.
(In general: A flow cytometer gives signals particle by particle.)

Test [3] has as its target T1, human CD16A (158F) on transfected CHO …. In words: flow cytometry on huCD16A (158F)-transfected CHO cells (cAg_34), anti-human IgG-FITC detection. Here is the method:
as §3

Test [4] addresses T2, cynomolgus CD16 on transfected CHO …. In words: flow cytometry on cyCD16 CHO cells (cAg_36), one-site fit of MFI, mean. Here is the method:
as §3, §2

For test [5], the target named is T1, human CD16A (158F) on transfected CHO …. Briefly: flow cytometry on huCD16A (158F) CHO cells (cAg_34), one-site fit of MFI, mean. The method, then: as §1, §2
The target in test [6] is T2, cynomolgus CD16 on transfected CHO …. Briefly: flow cytometry on cyCD16 CHO cells (cAg_36), one-site fit of MFI, Exp. 1. The method, then:
as §1, §2

The target in test [7] is T1, human CD16A (158F) on transfected CHO …. In words: flow cytometry on huCD16A (158F) CHO cells (cAg_34), one-site fit of MFI, Exp. 1. Here is the method: as §1, §2
For test [8] the target is unchanged. Briefly: flow cytometry on huCD16A (158F) CHO cells (cAg_34), one-site fit of MFI, Exp. 3. Here is the method:
as §1, §2

Test [9] addresses T2, cynomolgus CD16 on transfected CHO …. Briefly: flow cytometry on cyCD16 CHO cells (cAg_36), one-site fit of MFI, Exp. 3. The method, then: as §1, §2
The target is the same in test [10]. In words: flow cytometry on cyCD16 CHO cells (cAg_36), one-site fit of MFI, Exp. 2. The method, then: as §3, §2

T1 sequence (P08637 17-254 limits assumed): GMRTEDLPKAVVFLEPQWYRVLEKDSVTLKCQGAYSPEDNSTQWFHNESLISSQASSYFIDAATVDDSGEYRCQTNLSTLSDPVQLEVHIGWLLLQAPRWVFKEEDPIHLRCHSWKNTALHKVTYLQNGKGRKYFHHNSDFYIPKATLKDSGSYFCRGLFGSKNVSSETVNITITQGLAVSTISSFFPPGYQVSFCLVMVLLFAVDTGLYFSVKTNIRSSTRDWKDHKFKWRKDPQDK

B1: scFv-IgAb_381 (Target specificity x CD16A, CD16a4) (bispecific antibody)
chain 1: EVQLVESGGGVVQPGRSLRLSCSASGFTFSGYGLSWVRQAPGKGLEWVAMISSGGSYTYYADSVKGRFAISRDNAKNTLFLQMDSLRPEDTGVYFCARHGDDPAWFAYWGQGTPVTVSSASTKGPSVFPLAPSSKSTSGGTAALGCLVKDYFPEPVTVSWNSGALTSGVHTFPAVLQSSGLYSLSSVVTVPSSSLGTQTYICNVNHKPSNTKVDKKVEPKSCDKTHTCPPCPAPEFEGGPSVFLFPPKPKDTLMISRTPEVTCVVVAVSHEDPEVKFNWYVDGVEVHNAKTKPREEQYNSTYRVVSVLTVLHQDWLNGKEYKCKVSNKALPAPIEKTISKAKGQPREPQVYTLPPSREEMTKNQVSLTCLVKGFYPSDIAVEWESNGQPENNYKTTPPVLDSDGSFFLYSKLTVDKSRWQQGNVFSCSVMHEALHNHYTQKSLSLSPGGGGGSGGGGSGGGGSGGGGSGGGGSGGGGSSYELTQPLSVSVALGQTARITCGGHNIGSKNVHWYQQKPGQAPVLVIYQDNKRPSGIPERFSGSNSGNTATLTISRAQAGDEADYYCQVWDNYNVLFGCGTKLTVLGGSGGSGGSGGSGGSGGSGGSQVQLVQSGAEVKKPGASVKVSCKASGYTFTSYYMHWVRQAPGQCLEWMGAIEPTYGSTSYAQKFQGRVTMTRDTSTSTVYMELSSLRSEDTAVYYCARGSAYYYDFADYWGQGTLVTVS
chain 2: DIQLTQSPSSLSASVGDRVTITCSVSSSISSNNLHWYQQKPGKAPKPWIYGTSNLASGVPSRFSGSGSGTDYTFTISSLQPEDIATYYCQQWSSYPYMYTFGQGTKVEIKRTVAAPSVFIFPPSDEQLKSGTASVVCLLNNFYPREAKVQWKVDNALQSGNSQESVTEQDSKDSTYSLSSTLTLSKADYEKHKVYACEVTHQGLSSPVTKSFNRGEC
Broadly, the Kd is the constant that tells how readily two partners part at equilibrium. A low value points to a tighter complex. One may read the EC50 (read off the curve) as the concentration giving half of the maximal effect. A low value points to greater potency. In the case of B1, the Kd in test [1] was 29.3 nM; in [4], 32.8 nM; in [5], 26.2 nM; in test [6], 38.6 nM; in test [7], 22.1 nM; in test [8], 27.1 nM. The Kd came out at 28.2 nM in test [9] and 31.7 nM in test [10]. Moreover, the “EC50 (read off the curve)” value in test [2] was ~40 nM; in [3] it was ~30 nM.
